From paper PMC11315935, “Multi-layered heterochromatin interaction as a switch for DIM2-mediated DNA methylation” (Nature Communications, 2024)
Substitutions are numbered along the chain they refer to. Names and notes keep the numbering of the source.

B1: DIM2 (Defective-In-Methylation-2) N-terminal fragment, residues 1-1242, wild type (domain or fragment, Neurospora crassa, UniProt Q3Y3Z1 1-1242, looked up)
chain: MDSPDRSHGGMFIDVPAETMGFQEDYLDMFASVLSQGLAKEGDYAHHQPLPAGKEECLEPIAVATTITPSPDDPQLQLQLELEQQFQTESGLNGVDPAPAPESEDEADLPDGFSDESPDDDFVVQRSKHITVDLPVSTLINPRSTFQRIDENDNLVPPPQSTPERVAVEDLLKAAKAAGKNKEDYIEFELHDFNFYVNYAYHPQEMRPIQLVATKVLHDKYYFDGVLKYGNTKHYVTGMQVLELPVGNYGASLHSVKGQIWVRSKHNAKKEIYYLLKKPAFEYQRYYQPFLWIADLGKHVVDYCTRMVERKREVTLGCFKSDFIQWASKAHGKSKAFQNWRAQHPSDDFRTSVAANIGYIWKEINGVAGAKRAAGDQLFRELMIVKPGQYFRQEVPPGPVVTEGDRTVAATIVTPYIKECFGHMILGKVLRLAGEDAEKEKEVKLAKRLKIENKNATKADTKDDMKNDTATESLPTPLRSLPVQVLEATPIESDIVSIVSSDLPPSENNPPPLTNGSVKPKAKANPKPKPSTQPLHAAHVKYLSQELVNKIKVGDVISTPRDDSSNTDTKWKPTDTDDHRWFGLVQRVHTAKTKSSGRGLNSKSFDVIWFYRPEDTPCCAMKYKWRNELFLSNHCTCQEGHHARVKGNEVLAVHPVDWFGTPESNKGEFFVRQLYESEQRRWITLQKDHLTCYHNQPPKPPTAPYKPGDTVLATLSPSDKFSDPYEVVEYFTQGEKETAFVRLRKLLRRRKVDRQDAPANELVYTEDLVDVRAERIVGKCIMRCFRPDERVPSPYDRGGTGNMFFITHRQDHGRCVPLDTLPPTLRQGFNPLGNLGKPKLRGMDLYCGGGNFGRGLEEGGVVEMRWANDIWDKAIHTYMANTPDPNKTNPFLGSVDDLLRLALEGKFSDNVPRPGEVDFIAAGSPCPGFSLLTQDKKVLNQVKNQSLVASFASFVDFYRPKYGVLENVSGIVQTFVNRKQDVLSQLFCALVGMGYQAQLILGDAWAHGAPQSRERVFLYFAAPGLPLPDPPLPSHSHYRVKNRNIGFLCNGESYVQRSFIPTAFKFVSAGEGTADLPKIGDGKPDACVRFPDHRLASGITPYIRAQYACIPTHPYGMNFIKAWNNGNGVMSKSDRDLFPSEGKTRTSDASVGWKRLNPKTLFPTVTTTSNPSDARMGPGLHWDEDRPYTVQEMRRAQGYLDEEVLVGRTTDQWKLVGNSVSRHMALAIGLKFREAWLGTLYD
B2: heterochromatin protein 1 (HP1), full length, residues 1-266 (natural protein, Neurospora crassa, UniProt Q1K612 1-266, looked up)
chain: MPYDPSALSDEEAASSVELDTRSATSSSKKQSRDKKSVKYTIPEPEDFEDEEQNGDGADEGGEDDEEGDEEEEDVYVVEKILDHMLNDDNEPLFLVKWEGYEKKSDQTWEPEDTLIEGASERLKEYFTKIGGREKIFEASAAAQKIKKRGRPSSNSGTPQASSNKRSRKNGDHPLNSEEPQTAKNAAWKPPAGSWEEHIAQLDACEDEDTHKLMVYLTWKNGHKTQHTTDVIYKRCPQKMLQFYERHVRIIKRDPDSEDREGSVSQ
notes: HP1, Neurospora crassa, UniProt Q1K612, residues 1-266, synthetic codon-optimised gene; Homodimer through its chromo shadow domains in the cryo-EM structures; only the CSDs (K189-I251, C191-I251) were traced; also called HP1-I; HP1-II; source: E. coli BL21 (DE3) RIL, purified (Ni-NTA, heparin, TEV cleavage, second Ni-NTA, SEC); not shown: His6, N-terminal, cleaved; MBP, N-terminal, cleaved
B3: DIM2 (residues 1-1242) R1104A mutant (domain or fragment, Neurospora crassa, UniProt Q3Y3Z1 1-1242, looked up)
chain: B1 chain with R1104A
B4: DIM2 (residues 1-1242) L134A/L139A double mutant (domain or fragment, Neurospora crassa, UniProt Q3Y3Z1 1-1242, looked up)
chain: B1 chain with L134A, L139A

Experiments:
[1] = biological target: histone H3 peptide (residues 1-24) with H3K9me3, plus a C-terminal tryptophan (UniProt P68431 2-25, trimethyl-lysine at K9); assay: cell-based or functional assay
[2] = biological target: B4; assay: SEC; analytical SEC, 1.0 µM DIM2 and/or 2.5 µM HP1 on Superdex 200 increase 10/300 GL, 20 mM Tris-HCl pH 7.5, 100 mM NaCl, 5% glycerol, 5 mM DTT; fractions on SDS-PAGE; details: both partners purified
[3] = biological target: B1; assay: as above; details: both partners purified
[4] = biological target: B2; assay: cell-based or functional assay

Binder: B1
in vitro DNA methylation of a 36-mer duplex by DIM2 with HP1 and H3K9me3 peptide, against the DIM2-HP1 mixture [1]: ~90 fold

Binder: B2
binding result [2]: binds | binding result [3]: binds

Binder: B3
in vitro DNA methylation: activity-stimulation effect of HP1, reduction against WT DIM2 [4]: ~8 fold | thermal shift assay: change of the Tm of DIM2 on co-incubation with HP1 [4]: 2.5 °C

Binder: B4
in vitro DNA methylation of (CTA)12/(TAG)12 duplex with HP1 and H3(1-24)K9me3 peptide; reduction against WT DIM2 [4]: 14 fold
